Results on 4 substances are retold here after paper PMC3285612.

Assay [1] addresses thrombin (UniProt P00734). As to conditions: cited from earlier work.
For assay [2], the target named is thrombin (UniProt P00734). As to conditions: cited from earlier work. The source holds these as a separate data set.
For assay [3], the target named is recombinant Simukunin (rSV-66) (Simulium vittatum) (UniProt B5M0W4). Kind of assay: SPR; kinetics: rSimukunin immobilised on a CM5 chip by amine coupling (475.3 RU); FXa 3.1-50 nM or elastase 0.45-3.75 nM injected for 180 s at 30 µl/minute, 25°C; HBS-P (10 mM Hepes pH 7.4, 150 mM NaCl, 0.005% P20); global fit to a 1:1 Langmuir model. (Surface plasmon resonance follows binding to a sensor surface in real time, without labels.)

Another assay addresses Factor X (Homo sapiens) (UniProt P00742). As to conditions: cited from earlier work.
Assay [4] has as its target Factor Xa (FXa) (Homo sapiens) (UniProt P00742). As to conditions: cited from earlier work.
Assay [5] has as its target Factor X (FX) (Homo sapiens) (UniProt P00742). The note with it: cited from earlier work.
In another assay the target is Factor Xa (Homo sapiens) (UniProt P00742). As to conditions: cited from earlier work.

Like-named read-outs stand apart in the source and are kept apart here.

Chain of ixolaris (Q964Q0 27-165): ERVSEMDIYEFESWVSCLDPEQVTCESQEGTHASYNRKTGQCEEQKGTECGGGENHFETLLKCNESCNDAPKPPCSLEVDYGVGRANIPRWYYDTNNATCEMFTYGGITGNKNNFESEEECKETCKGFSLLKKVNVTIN
Chain of recombinant Simukunin (rSV-66) (Simulium vittatum) (B5M0W4 20-102): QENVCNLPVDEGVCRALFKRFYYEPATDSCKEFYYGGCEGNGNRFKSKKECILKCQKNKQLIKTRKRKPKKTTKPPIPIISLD
Chain of ornithodorin (P56409 whole entry): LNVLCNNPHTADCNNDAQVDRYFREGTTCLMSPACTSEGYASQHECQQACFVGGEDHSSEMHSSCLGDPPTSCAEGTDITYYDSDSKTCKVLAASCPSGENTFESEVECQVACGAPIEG
Chain of amblin (Q5VJG2 16-166): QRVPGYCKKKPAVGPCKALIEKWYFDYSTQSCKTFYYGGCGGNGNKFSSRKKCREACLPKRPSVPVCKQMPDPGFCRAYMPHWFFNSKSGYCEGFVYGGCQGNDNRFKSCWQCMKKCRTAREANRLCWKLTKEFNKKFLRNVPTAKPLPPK
Chain of Factor Xa (Homo sapiens) (P00742 235-488): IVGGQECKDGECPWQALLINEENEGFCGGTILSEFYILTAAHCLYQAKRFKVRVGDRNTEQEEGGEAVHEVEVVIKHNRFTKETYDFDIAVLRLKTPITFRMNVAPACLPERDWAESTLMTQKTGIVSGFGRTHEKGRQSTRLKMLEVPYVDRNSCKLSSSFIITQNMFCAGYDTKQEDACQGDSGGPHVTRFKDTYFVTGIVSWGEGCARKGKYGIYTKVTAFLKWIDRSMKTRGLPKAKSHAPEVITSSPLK
Chain of Factor X (FX) (Homo sapiens) (P00742 41-179, chain 1 of 2): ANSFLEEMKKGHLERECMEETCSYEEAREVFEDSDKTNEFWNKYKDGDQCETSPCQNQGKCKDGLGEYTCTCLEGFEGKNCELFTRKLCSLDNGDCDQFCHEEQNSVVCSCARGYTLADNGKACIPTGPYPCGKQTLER
Chain of Factor X (FX) (Homo sapiens) (P00742 183-488, chain 2 of 2): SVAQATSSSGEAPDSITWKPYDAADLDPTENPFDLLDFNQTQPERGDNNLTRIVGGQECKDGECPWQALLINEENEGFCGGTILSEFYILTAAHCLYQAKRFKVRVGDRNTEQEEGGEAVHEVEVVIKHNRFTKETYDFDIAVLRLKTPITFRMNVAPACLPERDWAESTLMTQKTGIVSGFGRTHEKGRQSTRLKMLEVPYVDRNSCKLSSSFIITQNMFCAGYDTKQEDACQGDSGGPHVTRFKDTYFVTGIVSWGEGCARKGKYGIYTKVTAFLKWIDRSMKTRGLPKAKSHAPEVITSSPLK
Chain of Factor Xa (FXa) (Homo sapiens) (P00742 41-179, chain 1 of 2): as the sequence (P00742 41-179, chain 1 of 2) above
Chain of Factor Xa (FXa) (Homo sapiens) (P00742 235-488, chain 2 of 2): as the sequence (P00742 235-488) above
Chain of Factor X (Homo sapiens) (P00742 41-179): as the sequence (P00742 41-179, chain 1 of 2) above

On to ornithodorin (from UniProt P56409), for which, in the assay with thrombin [1], the Ki was 0.001 nM.

Turning to amblin (from UniProt Q5VJG2), the Ki in the assay with thrombin [2] was 20 nM.

As for “activated coagulation factor X (FXa), human (enzyme)”, in assay [3], the Kd amounted to 3.07 nM, the koff was 0.000303 s⁻¹ and the kon was found to be 98700 M⁻¹ s⁻¹.

In the case of ixolaris (from UniProt Q964Q0), the Kd with Factor X (Homo sapiens) was 0.67 nM; in assay [4] it was 0.25 nM; in assay [5], 0.67 nM; in the assay with Factor Xa (Homo sapiens) it was 0.25 nM.

The term Ki denotes the dissociation constant of the complex between target and ligand, obtained from inhibition or displacement. By Kd is commonly meant the concentration at which binding is half-saturated. One may read the koff as the rate constant with which the complex falls apart. The kon is the second-order rate constant of association.
